Literature values as cited in paper PMC4451881.

Target: CK2beta (Homo sapiens) (UniProt P67870)
Sequence (P67870 2-215): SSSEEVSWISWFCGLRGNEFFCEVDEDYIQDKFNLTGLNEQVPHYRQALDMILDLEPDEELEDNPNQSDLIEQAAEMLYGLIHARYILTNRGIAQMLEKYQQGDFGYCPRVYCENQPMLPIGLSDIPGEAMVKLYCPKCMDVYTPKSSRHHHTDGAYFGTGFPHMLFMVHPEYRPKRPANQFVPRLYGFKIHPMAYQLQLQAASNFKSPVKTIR

CK2alpha, sequence (P68400 whole entry): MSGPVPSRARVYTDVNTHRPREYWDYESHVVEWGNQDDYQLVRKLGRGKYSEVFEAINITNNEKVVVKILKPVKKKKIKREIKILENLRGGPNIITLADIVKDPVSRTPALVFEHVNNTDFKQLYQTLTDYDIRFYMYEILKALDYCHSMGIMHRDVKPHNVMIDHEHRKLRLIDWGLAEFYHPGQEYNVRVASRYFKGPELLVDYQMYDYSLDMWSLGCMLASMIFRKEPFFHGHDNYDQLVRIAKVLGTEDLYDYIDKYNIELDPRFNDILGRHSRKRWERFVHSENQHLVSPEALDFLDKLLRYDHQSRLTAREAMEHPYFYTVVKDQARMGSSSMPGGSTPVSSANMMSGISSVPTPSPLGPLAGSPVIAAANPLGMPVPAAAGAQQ

Kd: 4 nM
Substance: CK2alpha (from UniProt P68400)
